Experimental data reported in US20210206861A1 (SUNSHINE GUOJIAN PHARMACEUTICAL SHANGHAI, published 2021).

B1: 4-2-Chimeric-IgG1 (antibody, V domains shown)
VH: QVQLQQSGPELVKPGASVKISCTASGSTLTDDYINWVKQRPGRGLEWVGWIFPGNGNSYYNEKFKDKATLIVDKSSSTAYMLLSSLTSEDSAVYFCARGLVRYRALFDYWGQGTTLTVSS
VL: QIVLSQSPAILSASPGEKVTMTCRASSSINYMHWYQQKPGSSPKPWIYAASNLASGVPARFSGSGSGTSFSLTISRVEAEDAATYYCQQWSSYPITFGSGTKLEIK
notes: also called chimeric antibody 4-2-Chimeric-IgG1
B2: Dupilumab (antibody, V domains shown)
VH: EVQLVESGGGLEQPGGSLRLSCAGSGFTFRDYAMTWVRQAPGKGLEWVSSISGSGGNTYYADSVKGRFTISRDNSKNTLYLQMNSLRAEDTAVYYCAKDRLSITIRPRYYGLDVWGQGTTVTVSS
VL: DIVMTQSPLSLPVTPGEPASISCRSSQSLLYSIGYNYLDWYLQKSGQSPQLLIYLGSNRASGVPDRFSGSGSGTDFTLKISRVEAEDVGFYYCMQALQTPYTFGQGTKLEIKR
B3: 4-2-Humanized-IgG1 (antibody)
heavy: not shown
light: DIQMTQSPSSLSASVGDRVTITCRASSSINYMHWYQQKPGKAPKPWIYAASNLASGVPSRFSGSGSGTDFTLTISSLQPEDFATYYCQQWSSYPITFGQGTKVEIKRTVAAPSVFIFPPSDEQLKSGTASVVCLLNNFYPREAKVQWKVDNALQSGNSQESVTEQDSKDSTYSLSSTLTLSKADYEKHKVYACEVTHQGLSSPVTKSFNRGEC
notes: expressed in HEK293E; also called humanized antibody 4-2-Humanized-IgG1
B4: 4-2-Humanized-IgG4 (antibody)
heavy: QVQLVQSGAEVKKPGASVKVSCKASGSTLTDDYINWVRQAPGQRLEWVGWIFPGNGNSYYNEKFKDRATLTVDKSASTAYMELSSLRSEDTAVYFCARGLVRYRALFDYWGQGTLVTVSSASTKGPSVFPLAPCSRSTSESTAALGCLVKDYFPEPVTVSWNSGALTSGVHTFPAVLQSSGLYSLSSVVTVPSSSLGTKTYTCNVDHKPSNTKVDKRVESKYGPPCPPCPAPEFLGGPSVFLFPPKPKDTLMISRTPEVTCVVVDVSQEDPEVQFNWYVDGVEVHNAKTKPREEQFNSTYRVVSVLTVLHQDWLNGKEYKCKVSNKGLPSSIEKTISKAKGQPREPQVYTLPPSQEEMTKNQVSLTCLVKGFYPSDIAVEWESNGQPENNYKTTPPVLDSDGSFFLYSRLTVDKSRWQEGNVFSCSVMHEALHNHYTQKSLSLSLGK
light: DIQMTQSPSSLSASVGDRVTITCRASSSINYMHWYQQKPGKAPKPWIYAASNLASGVPSRFSGSGSGTDFTLTISSLQPEDFATYYCQQWSSYPITFGQGTKVEIKRTVAAPSVFIFPPSDEQLKSGTASVVCLLNNFYPREAKVQWKVDNALQSGNSQESVTEQDSKDSTYSLSSTLTLSKADYEKHKVYACEVTHQGLSSPVTKSFNRGEC
notes: also called 4-2-Hu-IgG4
B5: 4-2-Humanized-IgG1-SELF (antibody)
heavy: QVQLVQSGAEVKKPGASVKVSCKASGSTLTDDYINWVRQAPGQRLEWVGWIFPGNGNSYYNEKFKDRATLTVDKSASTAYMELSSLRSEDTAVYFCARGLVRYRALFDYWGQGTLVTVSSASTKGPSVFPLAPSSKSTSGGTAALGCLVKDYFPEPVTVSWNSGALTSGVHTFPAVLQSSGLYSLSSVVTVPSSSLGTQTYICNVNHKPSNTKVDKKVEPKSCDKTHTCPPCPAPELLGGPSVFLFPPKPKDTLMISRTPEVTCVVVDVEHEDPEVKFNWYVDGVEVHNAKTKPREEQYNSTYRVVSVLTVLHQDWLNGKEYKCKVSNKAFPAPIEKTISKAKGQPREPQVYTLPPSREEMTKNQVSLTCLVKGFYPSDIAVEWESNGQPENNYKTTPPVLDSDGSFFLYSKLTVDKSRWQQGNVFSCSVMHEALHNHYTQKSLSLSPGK
light: DIQMTQSPSSLSASVGDRVTITCRASSSINYMHWYQQKPGKAPKPWIYAASNLASGVPSRFSGSGSGTDFTLTISSLQPEDFATYYCQQWSSYPITFGQGTKVEIKRTVAAPSVFIFPPSDEQLKSGTASVVCLLNNFYPREAKVQWKVDNALQSGNSQESVTEQDSKDSTYSLSSTLTLSKADYEKHKVYACEVTHQGLSSPVTKSFNRGEC
notes: also called SELF mutant of anti-human IL-4R humanized antibody

What was measured:
human IL-4R = human IL-4R (human, UniProt P24394 26-825); assay: cell-based or functional assay
IL-4R-ECD-FLAG [1] = target: T1, IL-4R-ECD-FLAG (human, UniProt P24394 26-232); assay: ELISA on coated IL-4R-ECD-FLAG (100 ng/ml), HRP goat anti-human secondary
T1 construct: Expressed in HEK293, purified on an anti-FLAG column; also called IL-4R antigen; human IL-4R; not shown: FLAG tag added to the end of the IL-4R-ECD coding region

IL-4R-ECD-FLAG [2] = target: T1, IL-4R-ECD-FLAG; assay: SPR, Biacore T200; antibody captured on Protein A/G CM5 chip, IL-4R-ECD-FLAG injected
Experimental: Next cycle was repeated after eluting the chip with 6M guanidine hydrochloride regeneration buffer. The data was analyzed using Biacore T200 Evaluation Software.

Biotinated IL-4R-ECD-hFc = target: T2, Biotinated IL-4R-ECD-hFc (human, UniProt P24394 26-232, biotinylated with Biotin N-hydroxysuccinimide ester (sites not given)); assay: blocking ELISA: coated IL-4-hFc (2000 ng/ml), biotinylated IL-4R-ECD-hFc (100 ng/ml) with antibody in dilution series, Streptavidin-HRP
T2 construct: also called biotinylated IL-4R-ECD-hFc; not shown: hFc (IgG1) tag
Experimental: The plate was washed with phosphate buffer containing 0.05% Tween-20 (PBST) and blocked by adding PBST containing 1% bovine serum albumin to each well. Then the plate was washed with PBST. […] The plate was washed with PBST. Streptavidin-HRP which was diluted with PBST containing 1% BSA at a dilution ratio of 1:1000 was added at 100 μl/well and incubated at 37° C. for 30 min. Chromogenic solution (TMB substrate solution) was added at 100 μl/well, and incubated at room temperature for 1˜5 min; then 50 μl/well of the stop solution was added to stop the color reaction. OD450 values were read with a microplate reader and GraphPad Prism6 was used to analyze data, prepare graphs, and calculate IC50.

| Binder | IC50 of inhibition of IL-4-induced TF-1 cell proliferation (human IL-4R) | IC50 of inhibition of IL-13-induced TF-1 cell proliferation (human IL-4R) | EC50 (IL-4R-ECD-FLAG [1]) | IC50 of inhibition of IL-4-induced CD23 expression by PBMC, first experiment (human IL-4R) | IC50 of inhibition of IL-4-induced CD23 expression by PBMC, second experiment (human IL-4R) | IC50 of inhibition of IL-4-induced IgE secretion by PBMC, first experiment (human IL-4R) | IC50 of inhibition of IL-4-induced IgE secretion by PBMC, second experiment (human IL-4R) | IC50 of inhibition of IL-4-induced TF-1 cell proliferation, first experiment (human IL-4R) | IC50 of inhibition of IL-4-induced TF-1 cell proliferation, second experiment (human IL-4R) | IC50 of inhibition of IL-4-induced TF-1 cell proliferation, third experiment (human IL-4R) | Kd (IL-4R-ECD-FLAG [2]) | koff (IL-4R-ECD-FLAG [2]) | kon (IL-4R-ECD-FLAG [2]) | IC50 (Biotinated IL-4R-ECD-hFc) |
| --- | --- | --- | --- | --- | --- | --- | --- | --- | --- | --- | --- | --- | --- | --- |
| B1 | 0.225 µg/mL | 0.0816 µg/mL | 0.0118 µg/mL | – | – | – | – | – | – | – | – | – | – | – |
| B2 | – | 0.0738 µg/mL | – | 0.0909 µg/mL | 0.0206 µg/mL | 0.996 µg/mL | 0.189 µg/mL | 0.842 µg/mL | 0.616 µg/mL | 0.687 µg/mL | – | – | – | – |
| B3 | – | 0.0343 µg/mL | 0.0124 µg/mL | 0.0294 µg/mL | 0.00356 µg/mL | 0.448 µg/mL | 0.0613 µg/mL | 0.561 µg/mL | 0.427 µg/mL | 0.52 µg/mL | 717 pM | 0.000133 s⁻¹ | 186000 M⁻¹ s⁻¹ | 0.138 µg/mL |
| B4 | 2.78 µg/mL | – | – | 0.232 µg/mL | 0.034 µg/mL | 1.95 µg/mL | 0.413 µg/mL | 1.29 µg/mL | 1.11 µg/mL | 1.15 µg/mL | 692 pM | 0.00013 s⁻¹ | 188000 M⁻¹ s⁻¹ | 0.14 µg/mL |
| B5 | 0.292 µg/mL | – | – | 0.0074 µg/mL | 0.00049 µg/mL | 0.0508 µg/mL | 0.0266 µg/mL | – | – | – | – | – | – | 0.144 µg/mL |
